Source: article doi:10.1101/2023.04.28.538690, “Post-translational modification of SPATULA by SECRET AGENT and SPINDLY promotes organ symmetry transition at the gynoecium apex” (bioRxiv, 2023)

What was measured:
Experiment in all cases: FRET or BRET; FRET-FLIM in nuclei of co-infiltrated N. benthamiana leaves (with P19), 48 h; SPT-EGFP as donor, RFP fusions as acceptors; with or without co-expressed SEC-3xHA or SPY-3xHA; at least 60 nuclei per condition
[1] = molecular target: T1, HECATE 1 (HEC1) fused to RFP (p35S:HEC1-RFP) (Arabidopsis thaliana, UniProt Q9FHA7 1-241); conditions: partners not purified
T1 construct: HECATE 1 (HEC1), bHLH transcription factor of Arabidopsis thaliana; source: N. benthamiana leaves, Agrobacterium-infiltrated, in nuclei of the leaf cells
T1 sequence (looked up): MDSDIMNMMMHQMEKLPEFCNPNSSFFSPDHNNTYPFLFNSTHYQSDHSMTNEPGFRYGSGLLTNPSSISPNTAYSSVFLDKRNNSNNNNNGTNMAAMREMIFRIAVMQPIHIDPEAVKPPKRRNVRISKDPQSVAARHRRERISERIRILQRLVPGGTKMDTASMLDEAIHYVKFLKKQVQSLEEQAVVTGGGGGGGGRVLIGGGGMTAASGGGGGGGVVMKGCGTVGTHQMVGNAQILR

[2] = molecular target: T2, INDEHISCENT (IND) fused to RFP (p35S:IND-RFP) (Arabidopsis thaliana, UniProt O81313 1-198); conditions: partners not purified
T2 construct: INDEHISCENT (IND), bHLH transcription factor of Arabidopsis thaliana; source: N. benthamiana leaves, Agrobacterium-infiltrated, in nuclei of the leaf cells
T2 sequence (looked up): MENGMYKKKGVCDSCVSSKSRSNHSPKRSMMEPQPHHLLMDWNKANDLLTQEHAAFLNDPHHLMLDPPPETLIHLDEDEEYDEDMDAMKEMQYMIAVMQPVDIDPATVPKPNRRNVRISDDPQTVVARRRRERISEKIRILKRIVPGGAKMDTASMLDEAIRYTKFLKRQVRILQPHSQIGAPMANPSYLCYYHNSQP

[3] = molecular target: the molecule itself

B1: SPATULA (SPT) fused to EGFP (p35S:SPT-GFP); second copy in the homodimer test fused to RFP (p35S:SPT-RFP) (natural protein, Arabidopsis thaliana, UniProt Q9FUA4 1-373, looked up)
chain: MISQREEREEKKQRVMGDKKLISSSSSSSVYDTRINHHLHHPPSSSDEISQFLRHIFDRSSPLPSYYSPATTTTTASLIGVHGSGDPHADNSRSLVSHHPPSDSVLMSKRVGDFSEVLIGGGSGSAAACFGFSGGGNNNNVQGNSSGTRVSSSSVGASGNETDEYDCESEEGGEAVVDEAPSSKSGPSSRSSSKRCRAAEVHNLSEKRRRSRINEKMKALQSLIPNSNKTDKASMLDEAIEYLKQLQLQVQMLTMRNGINLHPLCLPGTTLHPLQLSQIRPPEATNDPLLNHTNQFASTSNAPEMINTVASSYALEPSIRSHFGPFPLLTSPVEMSREGGLTHPRLNIGHSNANITGEQALFDGQPDLKDRIT
notes: SPATULA (SPT) of Arabidopsis thaliana; In the SPT;SPT test one copy carried EGFP (FRET donor) and the other RFP (acceptor) in place of EGFP; both copies are written as this one molecule; also called SPT-EGFP; source: N. benthamiana leaves, Agrobacterium-infiltrated, in nuclei of the leaf cells
[1]
  FRET efficiency: 7.4%
[2]
  FRET efficiency: 9.6%
[3]
  FRET efficiency: 5.7%
